# Measured values published in patent US20220323599A1, “ANTI-BCMA ANTIBODY CONJUGATE, COMPOSITIONS COMPRISING THE SAME, AND METHODS OF MAKING AND USING THE SAME” (CELGENE CORPORATION, priority 2019, published 2022).
# Legend:
# [1] = biological target: human BCMA on cells (endogenous on multiple myeloma cell lines; stably transfected 293T-hBCMA) (human) (UniProt Q02223); assay: flow cytometry, 293T-hBCMA cells
# [2] = biological target: human BCMA on cells (endogenous on multiple myeloma cell lines; stably transfected 293T-hBCMA) (human) (UniProt Q02223); assay: flow cytometry, ARP-1 cells
# [3] = biological target: human BCMA on cells (endogenous on multiple myeloma cell lines; stably transfected 293T-hBCMA) (human) (UniProt Q02223); assay: cell-based or functional assay
# [4] = biological target: Recombinant human BCMA ECD protein (Acro Biosystems) (human) (UniProt Q02223); assay: competition ELISA on coated human BCMA ECD, competitor BAFF at 1 ng/ml, Experiment No. 1
# [5] = biological target: cynomolgus BCMA on stably transfected 293T cells (cynomolgus monkey); assay: flow cytometry, 293T-cBCMA cells
# Chain of cynomolgus BCMA on stably transfected 293T cells (cynomolgus monkey) (Q02223 other isoform, or with tags, fused parts or gaps): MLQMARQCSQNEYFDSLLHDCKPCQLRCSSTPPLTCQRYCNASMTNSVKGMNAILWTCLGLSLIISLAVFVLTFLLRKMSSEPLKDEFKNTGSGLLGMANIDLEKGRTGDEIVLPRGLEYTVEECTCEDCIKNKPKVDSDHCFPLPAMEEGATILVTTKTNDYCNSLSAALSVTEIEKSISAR
# Chain of human BCMA on cells (endogenous on multiple myeloma cell lines; stably transfected 293T-hBCMA) (human) (Q02223 whole entry, the tested form may be a part): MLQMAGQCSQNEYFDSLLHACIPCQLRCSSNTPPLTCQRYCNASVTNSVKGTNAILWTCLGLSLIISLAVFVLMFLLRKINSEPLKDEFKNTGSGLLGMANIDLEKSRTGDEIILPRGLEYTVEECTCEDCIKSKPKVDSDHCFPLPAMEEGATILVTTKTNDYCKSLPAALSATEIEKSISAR
# Chain of Recombinant human BCMA ECD protein (Acro Biosystems) (human) (Q02223 1-54 limits assumed): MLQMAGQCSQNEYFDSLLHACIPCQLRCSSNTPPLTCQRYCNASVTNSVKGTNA
substance,measurement,setting,value
"Conjugate 1: anti-BCMA antibody J6M0 conjugated to maleimido-caproyl monomethyl auristatin F (mc-MMAF), surrogate ADC for GSK2857916",Bmax,[1],856 MFI
same,Bmax,[2],45 MFI
same,Kd,[2],2.4 nM
same,"cell killing EC50, ARP-1",[3],0.52 nM
same,"cell killing EC50, ARP-1, no competing reagent",[3],0.6 nM
same,"cell killing EC50, MM.1S",[3],0.68 nM
same,"cell killing EC50, NCI-H929",[3],0.29 nM
same,"cell killing EC50, NCI-H929, Experiment 1",[3],0.2 nM
same,"cell killing EC50, NCI-H929, Experiment 2",[3],0.2 nM
same,"cell killing EC50, NCI-H929, no competing reagent",[3],0.4 nM
same,"cell killing EC50, OPM2, Experiment 1",[3],0.8 nM
same,"cell killing EC50, OPM2, Experiment 2",[3],0.9 nM
same,"cell killing EC50, OPM2, no competing reagent",[3],2.3 nM
same,"cell killing EC50, OPM-2",[3],1.4 nM
same,"cell killing EC50, U266B1",[3],0.32 nM
same,"cell killing EC50, U266B1, Experiment 1",[3],0.2 nM
same,"cell killing EC50, U266B1, Experiment 2",[3],0.3 nM
same,"cell killing EC50, U266B1, no competing reagent",[3],0.4 nM
same,"cell killing Span, ARP-1",[3],95%
same,"cell killing Span, ARP-1, no competing reagent",[3],97%
same,"cell killing Span, MM.1S",[3],86%
same,"cell killing Span, NCI-H929",[3],91%
same,"cell killing Span, NCI-H929, Experiment 1",[3],85%
same,"cell killing Span, NCI-H929, Experiment 2",[3],86%
same,"cell killing Span, NCI-H929, no competing reagent",[3],86%
same,"cell killing Span, OPM2, Experiment 1",[3],95%
same,"cell killing Span, OPM2, Experiment 2",[3],94%
same,"cell killing Span, OPM2, no competing reagent",[3],92%
same,"cell killing Span, OPM-2",[3],93%
same,"cell killing Span, RPMI-8226",[3],40%
same,"cell killing Span, U266B1",[3],90%
same,"cell killing Span, U266B1, Experiment 1",[3],85%
same,"cell killing Span, U266B1, Experiment 2",[3],84%
same,"cell killing Span, U266B1, no competing reagent",[3],90%
same,IC50,[4],7 nM
same,Bmax,[5],981 MFI
same,Kd,[5],8.6 nM
